# Test results: the supplement of paper PMC10065799, “High-throughput profiling of sequence recognition by tyrosine kinases and SH2 domains using bacterial peptide display” (eLife, 2023)
# System: c-Src
# Assay: phosphorylation enrichment, bacterial display (enrichment ratio); higher = better substrate or ligand; peptides without Tyr show the background
# 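Throughout, for SH2 binding enrichment of the phosphorylated peptide, bacterial display: peptide library displayed on the E. coli surface as eCPX fusions, selected cells deep-sequenced, score is each peptide's frequency after selection divided by its frequency in the input.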
# 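Throughout, for phosphorylation enrichment, bacterial display: 11-residue human phosphosite peptides and single-mutation variants displayed on the E. coli surface, counted by deep sequencing, each peptide's frequency after selection divided by its frequency in the unselected input library; frequency after pTyr selection over input frequency; kinase dosed for 20-30% of maximal phosphorylation in three min.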
row,Sequence,phosphorylation enrichment
1,NGRTGDVLQPE [PLCG2_Y1036_Y1036D],0.428
2,QLCVNYPGGFT [PROS1_Y259_YF],0.37
3,DAPVVYLGSFR [PRAG1_Y132],0.449
4,KTEMLYHLTAR [XRCC2_Y59],0.965
5,ALTRSYIRERV [CYP2C8_Y243_K247R],0.451
6,SRKSEYLLPVA [MYLK_Y611],0.526
7,KRAAIYNPVIY [RHO_Y301_S297R],2.67
8,ERCAQYKKDVA [ALDOA_Y138_G142V],0.491
9,DSIRDYEDGME [CLNS1A_Y214],0.521
10,FVIISYVLIIR [OR1D2_Y218],0.517
11,RGYRVYYTPDS [PTPRF_Y450],0.947
12,VGNAAYQAGPL [STK36_Y1181],0.429
13,SSQVLYKLEQS [THADA_Y701],0.706
14,HLTNQYMQRVA [PABPC4_Y382],0.351
15,VDDQIYYFRKP [PBRM1_Y1289_E1287Q],6.28
16,FLELNYKEDEF [MME_Y502_YF],0.349
17,HNVPIYEGYAL [ACTA1_Y168],12.6

row,Sequence,phosphorylation enrichment
1,RGNKEYEEEKR [LENG1_Y96],0.323
2,RLQEGYDHSFF [ESD_Y258_YF],0.824
3,ERFSFYGMKAV [SLC15A2_Y61_YF],0.455
4,SFVVRYNQPRV [GRIN2D_Y736_M733V_YF],0.377
5,QSGGQYSSQGL [TNNI3K_Y788_A785G],0.495
6,TLQSMYGCDMG [HLA-B_Y123_V127M],0.689
7,QKPLGYYRVNL [GALE_Y104_D103G],0.386
8,GNLLIYTKFGK [HGD_Y166_E168K],2.02
9,IINENYDFLKG [NUP98_Y1664_YF],0.495
10,IKIMGYSIRTI [IDS_Y490],0.571
11,LQRVQYDLQKA [DSP_Y1512],0.409
12,GTYVIYVRFGG [FLNB_Y1687],0.752
13,VAVTKYCKEEF [ATP7B_Y1078_L1083F],0.462
14,MALDRYVASCK [OR2B11_Y127_I130S],0.436
15,NEANKYQISVN [FGB_Y368],0.425
16,NLDCFYQQVTK [SEC16A_Y1041_R1039C],1.31

# Target: Grb2 SH2 (UniProt P62993)
# Assay: SH2 binding enrichment of the phosphorylated peptide, bacterial display (enrichment ratio); higher = better substrate or ligand; peptides without Tyr show the background
# Sequence of Grb2 SH2 (P62993 whole entry, looked up): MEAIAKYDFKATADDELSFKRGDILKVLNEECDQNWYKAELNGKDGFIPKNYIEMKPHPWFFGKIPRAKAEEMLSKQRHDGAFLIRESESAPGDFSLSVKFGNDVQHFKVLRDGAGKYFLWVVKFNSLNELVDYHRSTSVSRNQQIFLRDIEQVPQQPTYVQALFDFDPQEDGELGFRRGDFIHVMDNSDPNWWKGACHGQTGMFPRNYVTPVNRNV
row,Sequence,SH2 binding enrichment
1,NGRTGDVLQPE [PLCG2_Y1036_Y1036D],0.579
2,QLCVNYPGGFT [PROS1_Y259_YF],0.73
3,DAPVVYLGSFR [PRAG1_Y132],1.08
4,KTEMLYHLTAR [XRCC2_Y59],0.903
5,ALTRSYIRERV [CYP2C8_Y243_K247R],0.607
6,SRKSEYLLPVA [MYLK_Y611],0.789
7,KRAAIYNPVIY [RHO_Y301_S297R],0.968
8,ERCAQYKKDVA [ALDOA_Y138_G142V],1.07
9,DSIRDYEDGME [CLNS1A_Y214],0.851
10,FVIISYVLIIR [OR1D2_Y218],4.69
11,RGYRVYYTPDS [PTPRF_Y450],0.707
12,VGNAAYQAGPL [STK36_Y1181],0.774
13,SSQVLYKLEQS [THADA_Y701],0.893
14,HLTNQYMQRVA [PABPC4_Y382],1.01
15,VDDQIYYFRKP [PBRM1_Y1289_E1287Q],0.746
16,FLELNYKEDEF [MME_Y502_YF],0.856
17,HNVPIYEGYAL [ACTA1_Y168],0.881

row,Sequence,SH2 binding enrichment
1,RGNKEYEEEKR [LENG1_Y96],0.863
2,RLQEGYDHSFF [ESD_Y258_YF],1.1
3,ERFSFYGMKAV [SLC15A2_Y61_YF],0.796
4,SFVVRYNQPRV [GRIN2D_Y736_M733V_YF],1.06
5,QSGGQYSSQGL [TNNI3K_Y788_A785G],0.787
6,TLQSMYGCDMG [HLA-B_Y123_V127M],0.916
7,QKPLGYYRVNL [GALE_Y104_D103G],1.27
8,GNLLIYTKFGK [HGD_Y166_E168K],0.666
9,IINENYDFLKG [NUP98_Y1664_YF],0.831
10,IKIMGYSIRTI [IDS_Y490],1.4
11,LQRVQYDLQKA [DSP_Y1512],0.948
12,GTYVIYVRFGG [FLNB_Y1687],1.1
13,VAVTKYCKEEF [ATP7B_Y1078_L1083F],0.862
14,MALDRYVASCK [OR2B11_Y127_I130S],0.799
15,NEANKYQISVN [FGB_Y368],0.763
16,NLDCFYQQVTK [SEC16A_Y1041_R1039C],1.1

# Target: SHP2-C SH2
# Assay: as above
row,Sequence,SH2 binding enrichment
1,NGRTGDVLQPE [PLCG2_Y1036_Y1036D],0.526
2,QLCVNYPGGFT [PROS1_Y259_YF],0.613
3,DAPVVYLGSFR [PRAG1_Y132],5.6
4,KTEMLYHLTAR [XRCC2_Y59],0.773
5,ALTRSYIRERV [CYP2C8_Y243_K247R],0.51
6,SRKSEYLLPVA [MYLK_Y611],0.786
7,KRAAIYNPVIY [RHO_Y301_S297R],0.645
8,ERCAQYKKDVA [ALDOA_Y138_G142V],0.976
9,DSIRDYEDGME [CLNS1A_Y214],0.859
10,FVIISYVLIIR [OR1D2_Y218],4.04
11,RGYRVYYTPDS [PTPRF_Y450],1.27
12,VGNAAYQAGPL [STK36_Y1181],0.499
13,SSQVLYKLEQS [THADA_Y701],0.678
14,HLTNQYMQRVA [PABPC4_Y382],0.929
15,VDDQIYYFRKP [PBRM1_Y1289_E1287Q],0.825
16,FLELNYKEDEF [MME_Y502_YF],0.773
17,HNVPIYEGYAL [ACTA1_Y168],1.01

row,Sequence,SH2 binding enrichment
1,RGNKEYEEEKR [LENG1_Y96],0.739
2,RLQEGYDHSFF [ESD_Y258_YF],0.622
3,ERFSFYGMKAV [SLC15A2_Y61_YF],0.68
4,SFVVRYNQPRV [GRIN2D_Y736_M733V_YF],0.697
5,QSGGQYSSQGL [TNNI3K_Y788_A785G],0.446
6,TLQSMYGCDMG [HLA-B_Y123_V127M],0.485
7,QKPLGYYRVNL [GALE_Y104_D103G],1.3
8,GNLLIYTKFGK [HGD_Y166_E168K],0.755
9,IINENYDFLKG [NUP98_Y1664_YF],0.737
10,IKIMGYSIRTI [IDS_Y490],1.02
11,LQRVQYDLQKA [DSP_Y1512],0.831
12,GTYVIYVRFGG [FLNB_Y1687],0.782
13,VAVTKYCKEEF [ATP7B_Y1078_L1083F],0.598
14,MALDRYVASCK [OR2B11_Y127_I130S],0.698
15,NEANKYQISVN [FGB_Y368],0.717
16,NLDCFYQQVTK [SEC16A_Y1041_R1039C],0.845

# Target: c-Src SH2
# Assay: as above
row,Sequence,SH2 binding enrichment
1,NGRTGDVLQPE [PLCG2_Y1036_Y1036D],0.347
2,QLCVNYPGGFT [PROS1_Y259_YF],0.538
3,DAPVVYLGSFR [PRAG1_Y132],0.53
4,KTEMLYHLTAR [XRCC2_Y59],0.676
5,ALTRSYIRERV [CYP2C8_Y243_K247R],0.395
6,SRKSEYLLPVA [MYLK_Y611],0.418
7,KRAAIYNPVIY [RHO_Y301_S297R],0.629
8,ERCAQYKKDVA [ALDOA_Y138_G142V],0.585
9,DSIRDYEDGME [CLNS1A_Y214],0.579
10,FVIISYVLIIR [OR1D2_Y218],1.89
11,RGYRVYYTPDS [PTPRF_Y450],5.05
12,VGNAAYQAGPL [STK36_Y1181],0.42
13,SSQVLYKLEQS [THADA_Y701],0.527
14,HLTNQYMQRVA [PABPC4_Y382],0.473
15,VDDQIYYFRKP [PBRM1_Y1289_E1287Q],0.487
16,FLELNYKEDEF [MME_Y502_YF],0.585
17,HNVPIYEGYAL [ACTA1_Y168],2.97

row,Sequence,SH2 binding enrichment
1,RGNKEYEEEKR [LENG1_Y96],0.538
2,RLQEGYDHSFF [ESD_Y258_YF],1.01
3,ERFSFYGMKAV [SLC15A2_Y61_YF],0.427
4,SFVVRYNQPRV [GRIN2D_Y736_M733V_YF],0.972
5,QSGGQYSSQGL [TNNI3K_Y788_A785G],0.577
6,TLQSMYGCDMG [HLA-B_Y123_V127M],0.757
7,QKPLGYYRVNL [GALE_Y104_D103G],0.961
8,GNLLIYTKFGK [HGD_Y166_E168K],0.571
9,IINENYDFLKG [NUP98_Y1664_YF],0.755
10,IKIMGYSIRTI [IDS_Y490],0.816
11,LQRVQYDLQKA [DSP_Y1512],0.565
12,GTYVIYVRFGG [FLNB_Y1687],0.533
13,VAVTKYCKEEF [ATP7B_Y1078_L1083F],0.501
14,MALDRYVASCK [OR2B11_Y127_I130S],0.579
15,NEANKYQISVN [FGB_Y368],0.481
16,NLDCFYQQVTK [SEC16A_Y1041_R1039C],0.947
